In patent US20250122242A1, “SELECTION SYSTEMS, PEPTIDES DETERMINED THEREWITH, AND METHODS OF USING SAME” (Wisconsin Alumni Research Foundation, priority 2023, published 2025):

Key:
[1] = target: Aβ42-T7n (UniProt P00573+P05067); settings: for Fold enrichment in negative vs. positive selection: percent reads negative vs. positive selection; for Percent total reads (negative selection) / Rank (negative selection): subsequent negative selection against Aβ42, high-throughput sequencing
Text: To create a negative selection, we placed gIII-neg, a dominant-negative form of gIII,^44 under PT7 in our selection circuit. Inhibition of a non-target APP (ex. Aβ42) triggers pIII-neg expression and poisons phage proliferation. A second plasmid produces small amounts of pIII from the phage shock promoter (FIG. 16A). All SPs infecting cells encoding this negative selection receive sufficient pIII to propagate. However, SP that carry a promiscuous or false positive cyclic peptide will also produce pIII-neg and generate non-infectious progeny (FIGS. 16B and 16C). We subjected the hIAPP round 5 phage population to four rounds of negative selection, diluting the phage by 100-fold each round (FIG. 5B).
Single colonies of host cells transformed with the appropriate selection plasmids were used to make overnight cultures in 2×YT with maintenance antibiotics. The overnight culture was diluted (1:100) into 4-5 mL DRM with maintenance antibiotics and incubated at 37° C. with shaking until the OD600 of the culture reached ˜0.5, upon which the expanded phage library was added at a titer of 1×10^6 pfu/mL. The culture was incubated at 37° C. with shaking overnight (13-18 h). The next day, the culture was centrifuged at 8,000 rcf for 2 min to obtain the supernatant containing phage. The collected phage was diluted into fresh host cell cultures (10 to 1,000-fold) for the next round of selection, while the rest was stored at 4° C. for downstream analysis. This process was repeated until a significant increase in phage propagation was observed compared with the parent library. Both positive and negative selection rounds were performed using this procedure.
Sample preparation. Phage stocks collected from the final rounds of library selection were first amplified using LY0145 and LY0146. The PCR product was purified, and adapters added using LY0147 and LY0148. The resulting PCR product was purified and barcoded through a final PCR using index primers to add unique indices for shared Illumina NovaSeq sequencing. The final PCR product was purified, and the concentration measured by Nanodrop. Further sample quality control was performed by the University of Wisconsin-Madison Biotechnology Center (UWBC).
High-throughput sequencing and data analysis. High-throughput sequencing was performed by UWBC using a shared sequencing service on the NovaSeq 6000 platform. Sequencing reads were demultiplexed by UWBC and analyzed using custom-written Python scripts.

[2] = target: T1, hIAPP (Homo sapiens, UniProt P10997); assay: TEM analysis of hIAPP fibril formation; format: biochemical; settings: 10 μM hIAPP, 40 μM cyclic peptide; for hIAPP fibril formation / aggregation onset by TEM: 2 h; for morphology of hIAPP fibrils by TEM: longer incubation (14 h)
T1 construct: A 1 mg portion of amylin trifluoroacetate salt (Bachem) was purchased as lyophilized solid in a vial; purchased Bachem
T1 sequence (P10997 34-70 limits assumed): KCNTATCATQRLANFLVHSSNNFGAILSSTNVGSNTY
Method: Transmission electron microscopy (TEM) was performed at the University of Wisconsin School of Medicine and Public Health Electron Microscopy facility. hIAPP and cyclic peptide were dissolved in 25 mM sodium phosphate buffer (pH 6.8 with 0.4% DMSO) to achieve a molar ratio of 1:4 at concentrations of hIAPP=10 μM and cyclic peptide=40 μM. The sample was incubated quiescently at 32° C. before TEM analysis. 2 μL of the sample was placed onto Formvar-coated copper grids and the excess liquid was blotted away. 2 μL of diluted Nano-W solution was then added to stain the grids and the excess liquid was blotted away. The TEM analysis was performed on Philips CM120 at 80 kV and digital images were obtained with an AMT BioSprint12 camera.

[3] = target: T1, hIAPP; assay: Native mass spectrometry (nESI-MS) of peptide-hIAPP interaction; format: binding; settings: peptide:hIAPP stoichiometry of complex
Method: hIAPP was dissolved in 200 mM ammonium acetate buffer (pH 7.4) to prepare 100 μM hIAPP stock solution. Cyclic peptide was first dissolved in DMSO to 10 mM, then diluted into the buffer to make 1 mM cyclic peptide stock solution. These stock solutions were diluted into the buffer to achieve final concentrations of [hIAPP]=16 μM and [cyclic peptide]=64 μM. The percentage of DMSO in the final solution was 0.64% for all the samples. Prepared samples were incubated quiescently for 20 min at 32° C. Native ESI-MS analysis was then performed on a SELECT SERIES Cyclic IMS Q-TOF (Waters Corp., Wilmslow, U.K.) equipped with nano-ESI interface.
All the samples were analyzed using positive ionization ESI with a capillary voltage of 1.1 kV. The following instrumental parameters were used: source temperature 100° C.; desolvation temperature 250° C.; sampling cone 30 V; backing pressure 2.5 mbar; trap collision energy 6 V; trap DC −4 V; transfer collision energy 4 V. The system was calibrated with NaI cluster ions from a 2 μg/μL 50:50 2-propanol:water solution. Data were acquired over the m/z range of 50-8000 and processed using MassLynxV4.2 (Waters Corp., Wilmslow, U.K.).

Sequence of Aβ42-T7n (P05067+P00573 fused): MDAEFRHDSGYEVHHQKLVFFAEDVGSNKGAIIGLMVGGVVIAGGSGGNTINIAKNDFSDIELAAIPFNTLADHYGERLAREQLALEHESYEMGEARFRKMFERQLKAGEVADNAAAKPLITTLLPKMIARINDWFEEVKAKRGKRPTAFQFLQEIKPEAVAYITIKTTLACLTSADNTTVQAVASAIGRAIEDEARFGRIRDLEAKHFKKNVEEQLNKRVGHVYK

CRCVFSG (cyclised; Circular) [cyclo-CRCVFSG]
Fold enrichment in negative vs. positive selection [1]: 701.46
Percent total reads (negative selection) [1]: 24.55%
Rank (negative selection) [1]: 2
hIAPP fibril formation / aggregation onset by TEM [2]: delay hNAPP aggregation
morphology of hIAPP fibrils by TEM [2]: do not change the overall appearance
complex with hIAPP detected by native mass spectrometry [3]: 1:1 complexes

CHVVGVI (cyclised; Circular) [cyclo-CHVVGVI]
Fold enrichment in negative vs. positive selection [1]: 0.003
Percent total reads (negative selection) [1]: 0.29%
Rank (negative selection) [1]: 20
hIAPP fibril formation / aggregation onset by TEM [2]: no fibrils are observed
morphology of hIAPP fibrils by TEM [2]: No gross differences in morphology
complex with hIAPP detected by native mass spectrometry [3]: 1:1 complex

CDLGVFR (cyclised; Circular) [cyclo-CDLGVFR]
Fold enrichment in negative vs. positive selection [1]: 410.79
Percent total reads (negative selection) [1]: 31.22%
Rank (negative selection) [1]: 1
hIAPP fibril formation / aggregation onset by TEM [2]: delay hNAPP aggregation
morphology of hIAPP fibrils by TEM [2]: do not change the overall appearance
complex with hIAPP detected by native mass spectrometry [3]: 1:1 complexes
